Experimental findings from patent publication US20250009876A1 (H LUNDBECK A S, published 2025) are described below.

For assay [1], the target named is T1, PACAP27 (Pituitary Adenylate Cyclase-Activating Polypeptide, 27 amino acids) (human, the C-terminal leucine is amidated).
T1 construct: also called human PACAP27
T1 peptide: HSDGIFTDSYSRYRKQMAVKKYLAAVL
Nature of the assay: SPR (ProteOn XPR36), antibody amine-coupled, peptide analyte, 1:1 Langmuir fit. An outline of the steps: (§1)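 Antibody amine-coupled to GLC or GLM chips; peptide antigen injected at 1.23 nM to 100 nM, association 2-4 min, dissociation 3-120 min. Sensorgrams fitted to a 1:1 Langmuir model; surfaces regenerated with 0.85% phosphoric acid between analytes.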

Assay [2] addresses T2, PACAP38 (Pituitary Adenylate Cyclase-Activating Polypeptide, 38 amino acids) (human, not fully specified; the C-terminal lysine is amidated).
T2 construct: In the HTRF and PC-12 cell assays the peptide was N-terminally or C-terminally biotinylated; unlabelled in SPR; also called human PACAP38; huPACAP (1-38)
T2 peptide: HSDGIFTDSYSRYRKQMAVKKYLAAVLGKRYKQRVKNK
The description is as above. An outline of the steps:
as §1

Assay [3] deals with T1, PACAP27 (Pituitary Adenylate …). Description: cell-based or functional assay.
The target in assay [4] is T2, PACAP38 (Pituitary Adenylate …). Description: cell-based or functional assay.
Assay [5] has the same target. Nature of the assay: cell-based or functional assay.
Assay [6] has the same target. Nature of the assay: cell-based or functional assay.
The target in assay [7] is T3, PAC1-R on PAC1-R-expressing PC-12 cells (UniProt P32215 20-523).
T3 construct: whole, on cells; also called PAC1 receptor
T3 sequence (looked up): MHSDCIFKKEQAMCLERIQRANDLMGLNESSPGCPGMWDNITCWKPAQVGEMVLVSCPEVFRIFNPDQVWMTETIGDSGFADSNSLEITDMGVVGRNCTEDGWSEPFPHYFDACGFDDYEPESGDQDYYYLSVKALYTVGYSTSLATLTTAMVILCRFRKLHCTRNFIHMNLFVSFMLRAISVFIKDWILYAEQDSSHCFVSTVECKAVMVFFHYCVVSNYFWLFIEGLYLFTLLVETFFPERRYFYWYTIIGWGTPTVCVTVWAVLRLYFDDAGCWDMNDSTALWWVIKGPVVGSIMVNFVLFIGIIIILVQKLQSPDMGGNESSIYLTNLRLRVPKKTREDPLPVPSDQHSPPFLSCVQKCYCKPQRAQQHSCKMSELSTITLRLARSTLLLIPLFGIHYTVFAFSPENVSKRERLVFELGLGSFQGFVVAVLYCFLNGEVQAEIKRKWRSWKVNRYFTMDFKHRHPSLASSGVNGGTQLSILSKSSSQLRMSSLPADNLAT
Nature of the assay: cell surface binding assay (DELFIA TRF): antibody pre-incubated with PACAP38, added to PAC1-R-expressing PC-12 cells, detected with Eu anti-human IgG.

B1: Ab10.H (antibody, human IgG1, kappa, N297A)
heavy: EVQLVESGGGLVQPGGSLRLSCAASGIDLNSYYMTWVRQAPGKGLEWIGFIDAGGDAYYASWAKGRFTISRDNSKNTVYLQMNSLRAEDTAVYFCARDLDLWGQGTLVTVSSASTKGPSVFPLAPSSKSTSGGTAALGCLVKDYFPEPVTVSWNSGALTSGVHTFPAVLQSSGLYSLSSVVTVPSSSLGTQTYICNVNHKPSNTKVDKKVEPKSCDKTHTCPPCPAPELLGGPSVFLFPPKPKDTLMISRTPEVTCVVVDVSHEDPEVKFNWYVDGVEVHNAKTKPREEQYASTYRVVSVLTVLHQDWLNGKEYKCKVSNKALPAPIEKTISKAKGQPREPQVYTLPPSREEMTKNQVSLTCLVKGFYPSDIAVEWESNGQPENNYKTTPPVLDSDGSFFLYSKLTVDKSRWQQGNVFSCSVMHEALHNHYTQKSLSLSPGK
light: DAQLTQSPSTLSASVGDRVTITCQSSESVYGNYLAWFQQKPGKAPKFLIYEASKLESGVPSRFSGSGSGTEFTLTISSLQPDDFATYYCAGGDISEGVAFGGGTKVEIKRTVAAPSVFIFPPSDEQLKSGTASVVCLLNNFYPREAKVQWKVDNALQSGNSQESVTEQDSKDSTYSLSSTLTLSKADYEKHKVYACEVTHQGLSSPVTKSFNRGEC
notes: Full-length humanized variant of Ab10
Take B1: in assay [1], the Kd (in general, the equilibrium constant for the complex coming apart) stood at 0.033 nM; the koff (usually the first-order rate constant of dissociation) worked out at 1.8e-05 s⁻¹; the on-rate constant (kon) – broadly, the rate constant with which the complex forms – is 530000 M⁻¹ s⁻¹. In assay [2], this molecule yielded a Kd of at most 0.029 nM, a koff of at most 1e-05 s⁻¹ and a kon of 340000 M⁻¹ s⁻¹. Besides, the “Inhibition of 0.1 nM PACAP27-induced PAC1-R mediated cAMP increase IC50 (pM)” value in assay [3] stood at 84 pM. Besides, the “Inhibition of 0.1 nM PACAP38-induced PAC1-R mediated cAMP increase IC50 (pM)” value in assay [4] turned out to be 163 pM. In assay [5], the “Inhibition of 1 nM PACAP38-induced human VPAC2-R mediated cAMP increase IC50 (pM)” value amounted to 988 pM. The “Inhibition of 5 nM PACAP38-induced human VPAC1-R mediated cAMP increase IC50 (pM)” value in assay [6] came out at 1340 pM. Further, in assay [7], the binding result is listed as “no binding (tested: about 70 nM)”.

B2: Ab10 (antibody, human IgG1, kappa, N297A, V domains shown)
VH: QSVEESGGRLVTPGTPLTLTCTVSGIDLNSYYMTWVRQAPGKGLEWIGFIDAGGDAYYASWAKGRFTISKTSTTVDLKITSPTTEDTATYFCARDLDLWGQGTLVTVSS
VL: AAVLTQTPSPVSAAVGGTVTINCQSSESVYGNYLAWFQQKPGQPPKLLIYEASKLESGVPSRFSGSGSGTQFTLTISDLQCDDAATYYCAGGDISEGVAFGGGTEVVVKR
notes: Full-length anti-PACAP antibody; rabbit variable regions cloned onto human constant regions (rabbit/human chimeric), expressed in HEK-293
B2: in assay [1], the equilibrium dissociation constant (Kd) is at most 0.01 nM, the koff was at most 1e-05 s⁻¹ and the kon is 1e+06 M⁻¹ s⁻¹. In assay [2], this molecule showed a Kd of 0.075 nM, a koff of 2e-05 s⁻¹ and a kon of 260000 M⁻¹ s⁻¹. Further, the “Inhibition of 0.1 nM PACAP27-induced PAC1-R mediated cAMP increase IC50 (pM)” value in assay [3] was found to be 227 pM. For the same molecule, the “Inhibition of 0.1 nM PACAP38-induced PAC1-R mediated cAMP increase IC50 (pM)” value in assay [4] came to 180 pM. Also, the “Inhibition of 1 nM PACAP38-induced human VPAC2-R mediated cAMP increase IC50 (pM)” value in assay [5] is 188 pM. Also, the “Inhibition of 5 nM PACAP38-induced human VPAC1-R mediated cAMP increase IC50 (pM)” value in assay [6] was found to be 649 pM. Further, the binding result in assay [7] was “no binding (tested: about 5000 nM)”.

B3: Ab20 (antibody, human IgG1, kappa, N297A, V domains shown)
VH: QSVEESGGRLVTPGTPLTLTCTVSGIDLSSYYMSWVRQAPGKGLEWIGFIDTDGSAYYATWAKGRFTISKTSTTVDLKITSPTTEDTATYFCARDLDLWGPGTLVTVSS
VL: AAVLTQTPSPVSAAVGGTVSISCQSSESVYSNYLAWFQQKPGQPPKFLIYEASKLASGVPSRFKGSGSGTQFTLTISDVQCDDAGTYYCAGGYSSEGVAFGGGTEVVVKR
notes: Full-length anti-PACAP antibody; rabbit/human chimeric
On to B3, for which, in assay [1], binding was put at a Kd of 0.07 nM, the koff stood at 2.2e-05 s⁻¹ and the kon is 320000 M⁻¹ s⁻¹. In assay [2], this molecule yielded a Kd of 0.21 nM, a koff of 2.4e-05 s⁻¹ and a kon of 120000 M⁻¹ s⁻¹. The “Inhibition of 0.1 nM PACAP27-induced PAC1-R mediated cAMP increase IC50 (pM)” value in assay [3] is 188 pM. Further, the “Inhibition of 0.1 nM PACAP38-induced PAC1-R mediated cAMP increase IC50 (pM)” value in assay [4] was determined as 368 pM. Moreover, the “Inhibition of 1 nM PACAP38-induced human VPAC2-R mediated cAMP increase IC50 (pM)” value in assay [5] amounted to 14600 pM. Also, the “Inhibition of 5 nM PACAP38-induced human VPAC1-R mediated cAMP increase IC50 (pM)” value in assay [6] amounted to 3890 pM. Also, in assay [7], the binding result is “no binding (tested: about 500 nM)”.
